The supplement of paper PMC7125110
± gives the standard error. For part of these data: Variants at the floor of the assay were thinned out.

B1: glmS ribozyme (parent)
chain: AUAAAAGCGCCAGAACUACAGAAAUGUAGUUGACGAGGAGGAGGUUUAUCGAAUUUUCGGCGGAUGCCUCCAAA

How the values were obtained:
Details in all cases: with glucosamine-6-phosphate
glucosamine-6-phosphate [1] = variants of: B1; assay: kcat; higher = faster cleavage; RNA array
Outline: (§1)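 Weighted Michaelis–Menten fits across concentrations supplied kcat and KM, based on kobs from one- or two-exponential decay fits to normalised per-tile medians. The data came from barcoded ribozyme variants transcribed in situ by E. coli RNA polymerase on sequenced MiSeq chips and tracked at 37 °C by a hybridised Cy3 probe. Glucosamine-6-phosphate (40 μM to 10 mM) in HEPES/KCl/Mg(OAc)2 buffer was flowed in.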

glucosamine-6-phosphate [2] = variants of: B1; assay: self-cleavage kobs at 40 uM GlcN6P; higher = faster cleavage; RNA array
Outline: as §1

glucosamine-6-phosphate [3] = variants of: B1; assay: self-cleavage kobs at 160 uM GlcN6P; higher = faster cleavage; RNA array
Outline: as §1

glucosamine-6-phosphate [4] = variants of: B1; assay: self-cleavage kobs at 640 uM GlcN6P; higher = faster cleavage; RNA array
Outline: as §1

glucosamine-6-phosphate [5] = variants of: B1; assay: KM; higher = weaker cofactor use; RNA array
Outline: as §1

glucosamine-6-phosphate [6] = variants of: B1; assay: self-cleavage kobs at 2500 uM GlcN6P; higher = faster cleavage; RNA array
Outline: as §1

glucosamine-6-phosphate [7] = variants of: B1; assay: self-cleavage kobs at 10000 uM GlcN6P; higher = faster cleavage; RNA array
Outline: as §1

Variant	kcat (glucosamine-6-phosphate [1])	self-cleavage kobs at 40 uM GlcN6P (glucosamine-6-phosphate [2])	self-cleavage kobs at 160 uM GlcN6P (glucosamine-6-phosphate [3])	self-cleavage kobs at 640 uM GlcN6P (glucosamine-6-phosphate [4])	KM (glucosamine-6-phosphate [5])	self-cleavage kobs at 2500 uM GlcN6P (glucosamine-6-phosphate [6])	self-cleavage kobs at 10000 uM GlcN6P (glucosamine-6-phosphate [7])
G32A A42U C70A	< 1e-05 s⁻¹	< 1e-05 s⁻¹	< 1e-05 s⁻¹	< 1e-05 s⁻¹	–	–	–
A12G G66A	0.000586 ± 0.00018 s⁻¹	–	2.09e-05 ± 9.7e-06 s⁻¹	0.000105 ± 1.1e-05 s⁻¹	3600 ± 1700 µM	0.000195 ± 2.3e-05 s⁻¹	0.000496 ± 5.7e-05 s⁻¹
G7C G38C	< 1e-05 s⁻¹	–	–	–	–	–	< 1e-05 s⁻¹
A39G G43U	0.000168 ± 1e-05 s⁻¹	–	–	5.98e-05 ± 1.8e-05 s⁻¹	1170 ± 240 µM	0.000119 ± 3.3e-05 s⁻¹	0.000149 ± 2.2e-05 s⁻¹
A6C U55G	0.00017 ± 7.1e-06 s⁻¹	–	–	–	8250 ± 640 µM	4.01e-05 ± 9.6e-06 s⁻¹	9.3e-05 ± 1.1e-05 s⁻¹
U30C C61G	1.42e-05 ± 1.3e-06 s⁻¹	–	–	–	–	–	–
G7A U45A	3.18e-05 ± 3.1e-06 s⁻¹	–	–	–	–	–	2.85e-05 ± 1.2e-05 s⁻¹
G51U A52C	< 1e-05 s⁻¹	< 1e-05 s⁻¹	–	–	–	< 1e-05 s⁻¹	< 1e-05 s⁻¹
C16A U69A	3.39e-05 ± 9e-06 s⁻¹	–	–	–	–	4.42e-05 ± 1.3e-05 s⁻¹	–
A12G C58G C67A	0.000115 ± 2.4e-05 s⁻¹	–	–	0.000136 ± 3.6e-05 s⁻¹	–	9.94e-05 ± 2.1e-05 s⁻¹	–
U31C G41A	9.11e-05 ± 9.7e-06 s⁻¹	–	–	6.76e-05 ± 1.5e-05 s⁻¹	–	9.23e-05 ± 1.6e-05 s⁻¹	8.13e-05 ± 1.2e-05 s⁻¹
C16G U30C	0.000111 ± 8.3e-06 s⁻¹	–	–	5.29e-05 ± 9.6e-06 s⁻¹	763 ± 200 µM	7.58e-05 ± 1.2e-05 s⁻¹	0.000109 ± 1.3e-05 s⁻¹
C16A U56A	0.0016 ± 0.00026 s⁻¹	2.51e-05 ± 9.6e-06 s⁻¹	9.31e-05 ± 3e-05 s⁻¹	0.000261 ± 7.2e-05 s⁻¹	3180 ± 890 µM	0.000618 ± 0.00011 s⁻¹	0.00131 ± 0.0002 s⁻¹
A39C U54A	0.00479 ± 0.0015 s⁻¹	0.000143 ± 4.1e-05 s⁻¹	0.000483 ± 0.00013 s⁻¹	0.00157 ± 0.00028 s⁻¹	1410 ± 630 µM	0.00219 ± 0.00068 s⁻¹	0.00615 ± 0.0015 s⁻¹
A12U A52U	0.00174 ± 0.00012 s⁻¹	–	7.11e-05 ± 2e-05 s⁻¹	0.000233 ± 3.8e-05 s⁻¹	4090 ± 490 µM	0.000681 ± 9.8e-05 s⁻¹	0.00123 ± 0.00011 s⁻¹
G41A U47G	0.00145 ± 0.00012 s⁻¹	–	6.46e-05 ± 2.1e-05 s⁻¹	0.00021 ± 4e-05 s⁻¹	3540 ± 470 µM	0.000656 ± 0.00011 s⁻¹	0.00104 ± 0.00017 s⁻¹
U46A U56A	0.001 ± 0.00013 s⁻¹	–	–	0.000307 ± 7e-05 s⁻¹	1800 ± 490 µM	0.000533 ± 0.00015 s⁻¹	0.000853 ± 0.00014 s⁻¹
C16G U57A C68U	4.17e-05 ± 9.1e-06 s⁻¹	–	–	–	–	5.4e-05 ± 2.1e-05 s⁻¹	–

Variant	kcat (glucosamine-6-phosphate [1])	self-cleavage kobs at 40 uM GlcN6P (glucosamine-6-phosphate [2])	self-cleavage kobs at 160 uM GlcN6P (glucosamine-6-phosphate [3])	self-cleavage kobs at 640 uM GlcN6P (glucosamine-6-phosphate [4])	KM (glucosamine-6-phosphate [5])	self-cleavage kobs at 2500 uM GlcN6P (glucosamine-6-phosphate [6])	self-cleavage kobs at 10000 uM GlcN6P (glucosamine-6-phosphate [7])
U49G A53G	0.00124 ± 0.00011 s⁻¹	3.67e-05 ± 1.3e-05 s⁻¹	0.000136 ± 2.5e-05 s⁻¹	0.000361 ± 6.3e-05 s⁻¹	1440 ± 230 µM	0.000714 ± 0.00011 s⁻¹	0.00116 ± 0.00015 s⁻¹
A33G A36C	1.58e-05 ± 7.1e-06 s⁻¹	< 1e-05 s⁻¹	< 1e-05 s⁻¹	< 1e-05 s⁻¹	–	–	< 1e-05 s⁻¹
C16U C71A	0.00166 ± 0.00032 s⁻¹	0.000186 ± 2.6e-05 s⁻¹	0.000667 ± 0.00016 s⁻¹	0.00168 ± 0.0003 s⁻¹	298 ± 95 µM	0.00113 ± 0.00027 s⁻¹	0.00173 ± 0.00034 s⁻¹
C10U A15G C68U	1.81e-05 ± 6.2e-06 s⁻¹	–	–	–	–	–	–
A12G U31C	0.000113 ± 7.3e-06 s⁻¹	–	–	–	4090 ± 630 µM	4.42e-05 ± 9.5e-06 s⁻¹	7.95e-05 ± 1.1e-05 s⁻¹
U45G U65G	0.00365 ± 0.0011 s⁻¹	7.22e-05 ± 2.1e-05 s⁻¹	–	0.000639 ± 0.00024 s⁻¹	2200 ± 1000 µM	0.00296 ± 0.00091 s⁻¹	0.00282 ± 0.00077 s⁻¹
G59U U69A	1.61e-05 ± 5.1e-06 s⁻¹	–	–	–	–	–	–
C16A C34U C71U	1.28e-05 ± 4.6e-06 s⁻¹	–	< 1e-05 s⁻¹	–	–	–	–
A15C A39C	0.00146 ± 0.00042 s⁻¹	2.08e-05 ± 6.5e-06 s⁻¹	0.000119 ± 1.5e-05 s⁻¹	0.000171 ± 2.6e-05 s⁻¹	3400 ± 1700 µM	0.000622 ± 9.2e-05 s⁻¹	0.00112 ± 8.5e-05 s⁻¹
A14U C50U C58U G60U	< 1e-05 s⁻¹	< 1e-05 s⁻¹	–	< 1e-05 s⁻¹	–	–	–
U45G U55A	0.00686 ± 0.00089 s⁻¹	0.000186 ± 4e-05 s⁻¹	0.000513 ± 7.7e-05 s⁻¹	0.00187 ± 0.00028 s⁻¹	1800 ± 330 µM	0.00385 ± 0.00058 s⁻¹	0.00606 ± 0.0012 s⁻¹
A6U G32A	< 1e-05 s⁻¹	< 1e-05 s⁻¹	< 1e-05 s⁻¹	–	–	–	–
A12U G13A	0.0015 ± 0.00056 s⁻¹	–	–	8.57e-05 ± 1.1e-05 s⁻¹	–	0.000208 ± 3.6e-05 s⁻¹	0.000715 ± 9.5e-05 s⁻¹
C11U U56A	0.00124 ± 0.00023 s⁻¹	3.72e-05 ± 1e-05 s⁻¹	0.000103 ± 1.4e-05 s⁻¹	0.000294 ± 4.5e-05 s⁻¹	1910 ± 580 µM	0.000621 ± 7.2e-05 s⁻¹	0.00125 ± 0.00016 s⁻¹
G38C C50U C61G	< 1e-05 s⁻¹	–	–	< 1e-05 s⁻¹	–	–	–
U56A U57A	0.000351 ± 3.9e-05 s⁻¹	–	–	4.44e-05 ± 1.7e-05 s⁻¹	3720 ± 820 µM	0.000155 ± 3.3e-05 s⁻¹	0.00025 ± 4.4e-05 s⁻¹
G37U C61U	< 1e-05 s⁻¹	–	–	–	–	–	–
